Test results from article PMC6021441, “Structural basis of the correct subunit assembly, aggregation, and intracellular degradation of nylon hydrolase” (Scientific Reports, 2018).
Changes are numbered by the printed parent chain.

Columns and labels:
[1] = molecular target: T1, NylCp2-G^122Y^130 alpha subunit (D122G/H130Y) (Arthrobacter, UniProt Q79F77 1-266, D122G | H130Y); test: crystal structure; sitting-drop vapor diffusion, ammonium sulfate, 0.1 M HEPES pH 7.5, 0.2 M NaCl, 25% glycerol; space group C222_(1), two molecules (A/B dimer) in the asymmetric unit, tetramer by the crystallographic two-fold axis; settings: both partners purified
T1 construct: NylCp2 alpha subunit with D122G and H130Y; also called α subunit of NylCp2-G^122Y^130; source: E. coli JM109, purified with the beta subunit as the active enzyme
T1 sequence (looked up): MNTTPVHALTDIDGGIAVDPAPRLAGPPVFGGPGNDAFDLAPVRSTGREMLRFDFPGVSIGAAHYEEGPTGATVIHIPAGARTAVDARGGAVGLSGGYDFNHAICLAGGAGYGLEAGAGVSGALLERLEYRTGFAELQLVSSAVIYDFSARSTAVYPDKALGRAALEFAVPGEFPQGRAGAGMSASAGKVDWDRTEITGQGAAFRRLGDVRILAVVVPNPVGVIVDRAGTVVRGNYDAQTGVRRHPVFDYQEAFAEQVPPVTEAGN

[2] = molecular target: T2, NylCp2 alpha subunit (27 kDa), wild type (Arthrobacter, UniProt Q79F77 1-266); test: as above; settings: both partners purified
T2 construct: NylCp2, alpha subunit made by autocleavage of the 355-residue precursor between Asn266 and Thr267; also called α subunit; source: E. coli JM109, purified with the beta subunit as the active enzyme
T2 sequence (looked up): T1 sequence (looked up) with G122D, Y130H

binding result [1]: binds | binding result [2]: binds
B1: NylCp2 beta subunit (9 kDa) (domain or fragment, Arthrobacter, UniProt Q79F77 267-355, looked up)
chain: TTISAIVTNVRMSPVELNQFAKQVHSSMHRGIQPFHTDMDGDTLFAVTTDEIDLPTTPGSSRGRLSVNATALGAIASEVMWDAVLEAGK
notes: NylCp2, beta subunit made by autocleavage of the 355-residue precursor between Asn266 and Thr267; the same in the wild type and in the mutants crystallised here (all their substitutions lie in the alpha subunit); also called β subunit; source: E. coli JM109, purified with the alpha subunit as the active enzyme
